The series can be described thus: soluble on expression in E. coli; label from the status in PepcDB or PDB records.
For “GHNLSYSVSANLSNYDARITRYDNPEKVFAKSYYPGMKLGEIWGYHVDGLFASDEEAAQYSSQVDLGVVAKNLPQGTWRAGDLKFADLDGDGKISVGEDSALNPGDMKIIGNELPTLQYGFSGSLNYMGFDIYAFFQGTGNHYWYPNGYNYQFWGSFSDPVAGYIPRNFIDQCWSKDNPGAYFPRPLGQSAKNGQLSFVNDRYLQNIRYMRFKNLTIGYSIPGKILSKVSIQQLRVYFTAENLCYWSPIKKHSKYIDPEAAFSRSSNQLNAMYYPWAKTYMFGIDITL”, the “soluble on expression in E. coli” value is “not soluble”.
The value for “GIDPFTMLRPRLCTMKKGPSGYGFNLHSDKSKPGQFIRSVDPDSPAEASGLRAQDRIVEVNGVCMEGKQHGDVVSAIRAGGDETKLLVVDRETDEFFKKCRVIPSQEHLNGPLPVPFTNGEIQKENSREALAEAALESPRPALVRSASSDTSEELNSQDSPPKQDSTAPSSTSSSDPILDFNISLAMAKERAHQKRSSKRAPQMDWSKKNELFSNL” was “soluble”.
On to “GINLTPEEKFEVFGDFDPDQYEEEVRERWGNTDAYRQSKEKTASYTKEDWQRIQDEADELTRRFVALMDAGEPADSEGAMDAAEDHRQGIARNHYDCGYEMHTCLGEMYVSDERFTRNIDAAKPGLAAYMRDAILANAVRHTP”, for which the “soluble on expression in E. coli” value is “soluble”.
For “GKNVMVEPHRHEGVFICRGKEDALVTKNLVPGESVYGEKRVSISEGDDKIEYRAWNPFRSKLAAAILGGVDQIHIKPGAKVLYLGAASGTTVSHVSDIVGPDGLVYAVEFSHRSGRDLINLAKKRTNIIPVIEDARHPHKYRMLIAMVDVIFADVAQPDQTRIVALNAHTFLRNGGHFVISIKANCIDSTASAEAVFASEVKKMQQENMKPQEQLTLEPYERDHAVVVGVYRP”, the “soluble on expression in E. coli” value is listed as “soluble”.
The entry for “GKRLGIFTHDNPDPDSMSSAYALREIAKQFDVIADILYYGEILHQKNRAMVNLLEIPMIRAPEVDLSHYDAFAIVDSSGPGVNNSIPPDIDISIVIDHHPAEKVVAEFVDLREDVGATATILTEYIKELKITPSKILATALFFGIKSETDEFKRNTRTADFLACAFLYPFVDQDLIEKIESPSI” is “not soluble”.
The value for “GLGDAGSTPTTSAADGVPSDTSLTGSGGLHLPQQLEQYRGDIMDAAKATGVPPSVIAGQIWAESRGQLNAATTNVNGKADAGLMQVNADTFKSLQQQNPGLLGNDVNDSHTNIMAGALYLRDQNKEFGDMGAALRAYNSGPDKVNKADLSDTGGVGGSSYPADVLNFAKIIESGQGNLPA” was “not soluble”; that for “GLSDRYQRVKKLGSGAYGEVLLCKDKLTGAERAIKIIKKSSVTTTSNSGALLDEVAVLKQLDHPNIMKLYEFFEDKRNYYLVMEVYRGGELFDEIILRQKFSEVDAAVIMKQVLSGTTYLHKHNIVHRDLKPENLLLESKSRDALIKIVDFGLSAHFEVGGKMKERLGTAYYIAPEVLRKKYDEKCDVWSCGVILYILLCGYPPFGGQTDQEILKRVEKGKFSFDPPDWTQVSDEAKQLVKLMLTYEPSKRISAEEALNHPWIVKFCSQKHTDVGKHALTGALGNMKKFQSSQKLAQAAMLFMGSKLTTLEETKELTQIFRQLDNNGDGQLDRKELIEGYRKLMQWKGDTVSDLDSSQIEAEVDHILQSVDFDRNGYIEYSEFVTVCMDKQLLLSRERLLAAFQQFDSDGSGKITNEELGRLFGVTEVDDETWHQVLQECDKNNDGEVDFEEFVEMMQKICDVKVKH” was “soluble”.
For the sequence “GMADLTHEFWDRLEDVRSGMLGIKGQGRLIPMSPQTDDDAPGAIWFITAKGTDLAKGVAAGPQPAQFVVSDDGEGLYADLDGTLERSTDREALDEFWSFVADAWFDGGQHDPDVCLLKFTPASGEISITEGGGARFLYEIAKAHLTDETPDMGEQATVTF”, the “soluble on expression in E. coli” value is reported as “soluble”.
The entry for “GMAEPKFTSFTTADFINDVDMELFIDAVEKTAPVWVKEMKSRGLLKFSMNRVWNKGEVFRVVMTYEYKDRASFEANIAYLEDTFGKNPVFLQLVTTAKFTTSRCLVVMEV” is “soluble”.
As for “GMELQDTIFKRQSVRKFKNQDVSDEDILKMIKAAGAAPSGKNIQNWHFVVIKRRDLMEKIADVITKKQQEILVEMDKVSVDKANRFRKFVKNFTLFYLKAPVLVLVFTKVYNPSGYYELELIDAPKETIDKLFIRNPGMQSLGAAIENFTLSAIELGYGSCWLTSQNYAADEIEAVLEAETGFEKGEYFLGAMLALGVPEDNLKSPSKKPVEEICTFIK”, the “soluble on expression in E. coli” value is given as “soluble”.
The value for “GMGKGKSAIESQIRMLKLAKEIVEEVASSFPNLEEVYIFGSRARGDYLDTSDIDILFVFKGIKEMNVFDRMYMVSRFIRGNVDYIVLDEGEKDRVKDKVLFWKREKGFVLL” was “soluble”.
The value for “GMGYTLAEFLAHAIALETEAAERYVELADMMEAHNNLDTATVFRDMARFSTLHGDEIKQRSRALELPKLMSWQYRWKTPPEVGDENDIHYLMTPYHALRYARDNEIRGMEYYKEAAANSADPEVKRLGADFAAEEAEHVVALDKWIEKTPRPSITWSEDADPAQCVD” was “soluble”; that for “GMHVYESDVSWIDDRRTEVSVGDHRIEVDSPPEFGGPEGQLYPETLFPSVLASCLLTTFLEFKDRMGINLKSWNSHVTAELGPSPEKGFKFHRIKIHVKIGVNDEDKEKIPRAMQLAEKYCFISRAIRNNVEEIVDYEFV” was “soluble”; that for “GMIPIVDSRIGAYLDGLLPEADPVVAAMEQIARERNIPIVDRQTGRLLYLLARIKQPQLVVVPGDGLGCASWWFARAISISSRVVMIDPDRDNVEHARRMLHDNGLIDRVELQVGDPLGIAAGQRDIDILFMDCDVFNGADVLERMNRCLAKNALLIAVNALRRGSVAESHEDPETAALREFNHHLSRRRDFFTTIVPVGNGVLLGYRLS” was “soluble”.
The value for “GMKCNDKLAPFEVFDHVVNKKLSFRHVTMDDVDMLHSWMHEEHVIPYWKLNIPLVDYKKHLQTFLNDDHQTLMVGAINGVPMSYWESYWVKEDIIANYYPFEEHDQGIHLLIGPQEYLGQGLIYPLLLAIMQQKFQEPDTNTIVAEPDRRNKKMIHVFKKCGFQPVKEVELPDKIGLLMKCEQNVFEKRWSDWKMNKF” was “soluble”.
Consider “GMKDTDETAFLNSLFMDFTSENELELFLKSLDEVWSEDLYSRLSAAGLIRHVISKVWNKEQHRISMVFEYDSKEGYQKCQEIIDKEFGITLKEKLKKFVFKIHNNRGVVVSEFIRST”, for which the “soluble on expression in E. coli” value is “soluble”.
Regarding “GMKNVTKASIDDLDSIVHIDIDVIGNDSRRNYIKHSIDEGRCVIVKEDNSISGFLTYDTNFFDCTFLSLIIVSPTKRRRGYASSLLSYMLSHSPTQKIFSSTNESNESMQKVFNANGFIRSGIVENLDEGDPEIIFYTKKLRA”, the “soluble on expression in E. coli” value is “soluble”.
Take “GMKTNEVLETIKARRSVRAYDRKQIPADDLNAILEAGAYAPSGMHYETWHFTAVCNTVKLEELNERIKGAFAKSDDKHLRERGHSETYCCYYHAPTLVIVSNEPKQWWAGMDCACAIENMFLAATSLGIASCWINQLGTTCDDPEVRAYLTSLGVPENHKVYGCVALGYKAEGALLKEKTVKAGTITIVE”: the “soluble on expression in E. coli” value is listed as “soluble”.
Regarding “GMKVLPVKQYLIMENYNPDTIFNGIVKINSNEKTFDDEILAQIGGALHDIDESWELLLSFANTIRSNWEIKTPAYDIVRLIVKKLPYSSDIKDYIEEGLGNKNITLTMLTVRILVNCFNNENWGVKLLESNQVYKSIFETIDTEFSQASAKQSQNLAIAVSTLIFNYSALVTKGNSDLELLPIVADAINTKYGPLEEYQECEEAAYRLTVAYGNLATVEPTLRQFANSVTWLANIKRSYGNVPRFKDIFDDLS”, the “soluble on expression in E. coli” value was “soluble”.
Regarding “GMMFKWPWKADDESGNAEMPWEQALAIPVLAHLSSTEQHKLTQMAARFLQQKRLVALQGLELTPLHQARIAMLFCLPVLELGIEWLDGFHEVLIYPAPFIVDDEWEDDIGLVHNQRVVQSGQSWQQGPVVLNWLDIQDSFDASGFNLVVHEVAHKLDTRNGDRASGVPLIPLREVAGWEHDLHAAMNNIQDEIDLVGESAASIDAYAATDPAECFAVLSEYFFSAPELFAPRFPALWQRFCHFYRQDPLARRRENGLQDEGDRRIVH”, the “soluble on expression in E. coli” value is “soluble”.
The value for “GMNAIRYTKRECKDEKKITEFLNKARTGFLGLSTNDQPYVIPLNFVWHNHAIYFHGASEGRKIKMIEANPEVCFTICEDLGTIVSPVPAHTDTAYMSVIIFGTIEPVSAIEEGTEAMQQMLDKYVPGYYHSPLAASHVEKYRSSLGSRTAIYKISCRERTAKVNEPIESLKFYPGRNVSVDKDSR” was “soluble”; that for “GMNNLYHLKVRCSSLHKIIGEPKSKADKEAGKLTDTAKSAVREMAKFDLFGYNAFEGNKYTQKGNELEEQAIKLSGVTRGLALKKNTERRENEFITGECDIYVPSRKLIIDTKCSWDIGSHPFFTDEAQEKAKKAGYDIQMQGYMWLWDCDQAQIDFVLFPTPLNLISAYDSDFKLIDLVEQIPQIRRITTVIIQRDNELIDKIKERVSAAQKYYDQLISEMS” was “soluble”.
On to “GMNSDIIVADFWKNNEEILTDFDKDSFCESWTENEMWSIEFKVAQTPKNAHCYSFLDYESSVYFRGQEFVVKQLSHDAVGKTLSKDIRAPHIYYTCQDGRQDDAITGSFTLEQCLTHIFKTDNRGFSWEIIDPSNILEKVQQENFGNNNYLTLIDQLLDDYGVVVIPDNRHLVFKPREIYGAKTENFIRYKYNTDEASFDIDTLSLKTKIKGYGKVDSNGNNYFSPITYTSPEVEKWGIRWQEPVSDERYTVAGNMQRRLKLELQDYPATTGSVILKNDYECEKGDYVLFIYEPLGIDYDVQIVAYKKYPFTIKAPEITLSNNKKSIVSIMAQLAKVLKGAK”, for which the “soluble on expression in E. coli” value is listed as “soluble”.
On to “GMPEIHQSIAQHYHERTKYDPETIASKSQRLDWAKQPVPFKEYKIGSAIDLKPYLQETPEVFVNDTNGQWWQRLSRLLFRSYGLTARMPSMGNTVYLRAAPSAGGLYPAEVYVVSRGTPLLSPGLYNYQCRTHSLIHYWESDVWQSLQEACFWHPALESTQLAIIVTAVFYRSAWRYEDRAYRRICLDTGHLLGNIELSAAITDYRPHLIGGFIDEAVNDLLYIDPLQEGAIAVLPLADLLDIQQNISPGCTALPSATETNYPQVPDGELLKYFHHHTQISASITGKLNLPTVIQEKSLEDKYNFPFCLKISTVSAPIYWGENLSDLEITMHKRRSTRAYNGEELTFDELKALLDFTYQPQNYIDQSLDNSPDYFDLNLIETFIAVCGVQGLEAGCYYYAPKAQELRQIRFKNFRRELHFLCLGQELGRDAAAVIFHTSDLKSAIAQYGDRVYRYLHMDAGHLGQRLNLAAIQLNLGVSGIGGFFDDQVNEVLGIPNDEAVIYITTLGRPR”, for which the “soluble on expression in E. coli” value is “soluble”.
The entry for “GMQTTEIDLRLTEVSQQLTMVLVPGLRDSDDEHWQSHWERRFPHWQRIRQREWYQADLDRWVLAIRRELSVCTQPVILIGHSFGALAACHVVQQGQEGIAGVMLVAPAEPMRFEIDDRIQASPLSVPTLTFASHNDPLMSFTRAQYWAQAWDSELVDVGEAGHINAEAGFGPWEYGLKRLAEFSEILIPNR” is “soluble”.
The value for “GMSDQRYNLRGVSASKEDVHNAIKNIDKGIFPKAFCKIIPDILGGDPEYCNIMHADGAGTKSSLAYMYWKETGDLSVWKGIAQDALIMNIDDLLCVGAVDNILVSSTIGRNKLLVPGEVISAIINGTDELLAELREMGVGCYATGGETADVGDLVRTIIVDSTVTCRMKRSDVIDNKNIQGGDVIVGLASSGQATYEKEYNGGMGSNGLTSARHDVFSKYLAKKYPESYDAAVPKELVYSGGLKLTDKIEELGIDAGKMVLSPTRTYAPVIKVLLDKLRSQIHGMVHCSGGAQTKVMHFVENKRVTKDNLFPIPPLFRTIQEQSGTDWSEMYKVFNMGHRMEIYIAPEHAEEVIGISKSFGIDAQIVGFVEEADKNELIIESEKGRFTY” was “soluble”.

Values taken from the DeepSol protein solubility set.
